Reference: US20080267971A1 (published 2008)

T1: human Ang-2443 (human, UniProt O15123 19-496)
T1 construct: Splice variant missing amino acids 96-148; supernatant of transfected 293F cells
T1 sequence: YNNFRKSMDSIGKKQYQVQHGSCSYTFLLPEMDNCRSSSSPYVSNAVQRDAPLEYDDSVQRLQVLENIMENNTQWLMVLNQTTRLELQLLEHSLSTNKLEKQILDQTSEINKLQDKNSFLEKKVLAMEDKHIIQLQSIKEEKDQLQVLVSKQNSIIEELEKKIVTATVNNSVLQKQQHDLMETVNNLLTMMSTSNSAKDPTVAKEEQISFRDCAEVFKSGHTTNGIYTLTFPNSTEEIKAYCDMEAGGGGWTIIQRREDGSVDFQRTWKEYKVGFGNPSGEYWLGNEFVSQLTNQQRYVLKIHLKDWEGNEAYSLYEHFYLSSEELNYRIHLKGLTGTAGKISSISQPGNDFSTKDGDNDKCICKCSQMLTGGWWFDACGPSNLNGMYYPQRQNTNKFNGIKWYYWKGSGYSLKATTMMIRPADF

T2: Human Ang-1/2 BsmI chimeric molecule (human)
T2 chain: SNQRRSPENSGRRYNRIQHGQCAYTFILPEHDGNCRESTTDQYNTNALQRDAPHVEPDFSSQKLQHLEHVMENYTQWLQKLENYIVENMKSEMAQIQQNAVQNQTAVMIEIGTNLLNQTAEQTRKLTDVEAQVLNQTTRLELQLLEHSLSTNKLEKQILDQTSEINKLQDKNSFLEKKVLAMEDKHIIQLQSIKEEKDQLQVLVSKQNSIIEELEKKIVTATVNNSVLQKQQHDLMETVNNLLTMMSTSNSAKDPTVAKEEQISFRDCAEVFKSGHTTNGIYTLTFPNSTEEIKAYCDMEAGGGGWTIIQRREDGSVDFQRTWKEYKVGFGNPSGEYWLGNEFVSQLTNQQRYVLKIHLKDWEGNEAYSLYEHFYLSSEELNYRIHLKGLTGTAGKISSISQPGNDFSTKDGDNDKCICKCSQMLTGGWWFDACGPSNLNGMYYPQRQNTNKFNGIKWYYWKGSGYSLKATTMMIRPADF

T3: human Ang-2 H375Q (human, UniProt O15123 19-496)
T3 sequence: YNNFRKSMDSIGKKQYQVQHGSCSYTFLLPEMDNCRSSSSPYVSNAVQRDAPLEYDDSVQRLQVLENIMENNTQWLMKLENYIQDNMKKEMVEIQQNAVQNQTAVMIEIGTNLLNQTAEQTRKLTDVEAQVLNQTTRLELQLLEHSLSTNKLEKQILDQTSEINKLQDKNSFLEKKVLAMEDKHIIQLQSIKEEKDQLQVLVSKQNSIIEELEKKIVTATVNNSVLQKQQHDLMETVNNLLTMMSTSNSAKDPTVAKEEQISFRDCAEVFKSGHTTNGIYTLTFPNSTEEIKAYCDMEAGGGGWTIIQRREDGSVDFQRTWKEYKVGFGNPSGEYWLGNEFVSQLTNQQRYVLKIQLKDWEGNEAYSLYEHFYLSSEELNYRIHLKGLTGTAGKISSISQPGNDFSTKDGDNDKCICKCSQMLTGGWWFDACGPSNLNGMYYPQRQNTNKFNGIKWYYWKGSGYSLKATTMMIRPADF

T4: human Angiopoietin-2 (human, UniProt O15123 19-496)
T4 construct: Mostly bought recombinant protein (R&D Systems 623-AM/CF, 623-AN; biotinylated BT623) or supernatant of transfected 293F cells; also called Ang-2; rhAng-2
T4 sequence: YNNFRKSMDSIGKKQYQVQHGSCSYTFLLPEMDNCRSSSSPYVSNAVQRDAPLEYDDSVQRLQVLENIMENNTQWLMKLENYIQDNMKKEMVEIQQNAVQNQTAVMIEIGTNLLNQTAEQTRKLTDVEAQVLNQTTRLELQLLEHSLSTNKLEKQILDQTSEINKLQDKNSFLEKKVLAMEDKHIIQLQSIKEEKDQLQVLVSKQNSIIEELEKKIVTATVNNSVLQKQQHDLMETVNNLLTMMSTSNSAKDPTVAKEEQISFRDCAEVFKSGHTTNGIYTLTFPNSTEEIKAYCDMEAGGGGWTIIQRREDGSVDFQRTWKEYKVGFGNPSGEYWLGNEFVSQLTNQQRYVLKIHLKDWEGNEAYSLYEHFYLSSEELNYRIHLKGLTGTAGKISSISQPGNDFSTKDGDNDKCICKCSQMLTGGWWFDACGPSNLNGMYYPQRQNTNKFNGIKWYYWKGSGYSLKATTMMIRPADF

T5: mouse Angiopoietin-2 (mouse, UniProt O35608 19-496)
T5 construct: Used as conditioned medium of transfectants; also called mAng-2; mouse Ang-2
T5 sequence: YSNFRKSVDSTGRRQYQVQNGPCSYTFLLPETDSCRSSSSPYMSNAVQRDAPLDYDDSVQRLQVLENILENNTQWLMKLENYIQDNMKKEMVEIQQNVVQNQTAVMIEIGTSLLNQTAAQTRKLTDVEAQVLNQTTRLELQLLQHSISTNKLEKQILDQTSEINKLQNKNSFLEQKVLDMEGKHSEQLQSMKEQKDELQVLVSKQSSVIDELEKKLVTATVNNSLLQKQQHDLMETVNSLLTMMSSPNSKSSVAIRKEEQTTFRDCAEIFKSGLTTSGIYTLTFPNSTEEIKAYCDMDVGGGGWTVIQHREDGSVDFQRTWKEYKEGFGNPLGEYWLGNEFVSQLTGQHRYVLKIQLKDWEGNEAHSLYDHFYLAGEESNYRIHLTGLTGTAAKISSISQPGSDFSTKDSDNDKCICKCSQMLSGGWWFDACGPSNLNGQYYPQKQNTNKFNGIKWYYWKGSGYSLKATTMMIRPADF


What was measured:
[1] = biological target: T1, human Ang-2443; experiment: ELISA
[2] = biological target: T2, Human Ang-1/2 BsmI chimeric molecule; experiment: ELISA
[3] = biological target: T3, human Ang-2 H375Q; experiment: ELISA
[4] = biological target: T4, human Angiopoietin-2; experiment: Biacore, mAb captured
Experimental: The label-free surface plasmon resonance (SPR), or Biacore, was utilized to measure the antibody affinity to the antigen. For this purpose, a high-density goat anti-human antibody surface over a CM5 Biacore chip was prepared using routine amine coupling. All the purified mAbs were diluted to approximately 8 μg/ml in HBS-P running buffer containing 100 μg/ml BSA and 10 mg/mL carboxymethyldextran. Each mAb was captured on a separate surface using a 42-second contact time, and a 5-minute wash for stabilization of the mAb baseline.
Data were fit globally to a 1:1 interaction model to determine the binding kinetics.

[5] = biological target: T5, mouse Angiopoietin-2; experiment: ELISA, recombinant mouse Ang-2
[6] = biological target: T4, human Angiopoietin-2; experiment: inhibition of rhAng-2 binding to its receptor

Row | Binder | % of binding to human Ang-2 [1] | % of binding to human Ang-2 [2] | % of binding to human Ang-2 [3] | Kd [4] | kon [4] | binding result [5] | OD650 in inhibition assay [6]
1 | mAb 5.13.1 (antibody, V domains shown, Human hybridoma IgG (XenoMouse); also called x5.13) VH: EVQLVESGGGLVQPGGSLRLSCAASGFTFSSYWMSWVRQAPGKGLEWVANIKQDGSEKYYVDSVKGRFTISRDNAKNSLYLQMNSLRAEDTAVYYCARDPGIAVAGPFDYWGQGTLVTVSS VL: EIVMTQSPATLSVSPGERATLSCRASQSVSSNLAWYQQKPGQAPRLLIYGASTRATGIPARFSGSGSGTEFTLTISSLQSEDFAVYYCQQYNHWWTFGQGTKVEIKR | 100% | 100% | 100% | ≤ 0.047 nM | 210000 M⁻¹ s⁻¹ | no binding | 0.0744 OD650
2 | mAb 5.40.2 (antibody, V domains shown, Human hybridoma IgG (XenoMouse); also called x5.40) VH: not shown VL: EIVMTQSPATLSVSPGERATLSCRASQSVSSNLVWYQQKPGQAPRLLIYDSSTRATGIPVRFSGSGSGTEFTLTISSLQSEDFAVYYCQQYNHWWTFGQGTKVEIKR | 100% | 100% | 100% | ≤ 0.129 nM | 78000 M⁻¹ s⁻¹ | no binding | 0.0691 OD650
3 | mAb 5.39.1 (antibody, V domains shown, Human hybridoma IgG (XenoMouse); also called x5.39) VH: QVQLVQSGAEVTKPGASVKVSCKASGYTFTAYHMYWVRQAPGQGLEWMGWINPNSGGTNYAQKFQGRVTMTRDTSISTAYMELSRLRSDDSPVYYCARDQGIAAAGPFDYWGQGTLVTVSS VL: EIVMTQSPATLSVSPGDRATLSCRASQSVSSNFAWYQQKPGQAPRLLIYGSSTRATGIPARFSGSGSGTEFTLTISSLQSEDFAVYYCQQYHYWWTFGQGTKVEFKR | 100% | 100% | 100% | ≤ 0.043 nM | 230000 M⁻¹ s⁻¹ | no binding | 0.0519 OD650
4 | mAb 3.3.2 (antibody, V domains shown, Human hybridoma IgG (XenoMouse); also called 3.3.1; x3.3) VH: EVQLVESGGGLVQPGGSLRLSCAVSGFTFSSYWMSWVRQAPGKGLEWVANIKQDGSEKYYVDSVKGRFTISRDNAKNSLYLQMNSLRAEDTAVYYCARDQGIAVAGPFDYWGQGTLVTVSS VL: EIVMTQSPATLSVSPGERATLSCRASQTVSSDLAWYQQKPGQAPRLLIYGASIRATGIPARFSGSGSGTEFTLTISSLQSEDFAVYSCQQYYNWWTFGQGTKVEIKR | 100% | 100% | 100% | ≤ 0.033 nM | 300000 M⁻¹ s⁻¹ | no binding | 0.0558 OD650
5 | mAb 5.35.1 (antibody, V domains shown, Human hybridoma IgG (XenoMouse); also called x5.35) VH: EVQLVESGGGVVRPGGSLRLSCTTSGFTFDDYGMSWVRQAPGKGLEWVSGINWNGGSTVYADSVKGRFTISRDSAKNSLYLQMNSLRAEDTALYHCARNKQWLWYFDLWGRGTLVTVSS VL: EIVMTQSPATLSVSPGERATLSCRASQSVSSNLAWYQQKPGQAPRLLIYGASTRATGIPARFSGSGSGTEFTLTISSLQSEDFAVYYCEQYNNWPLTFGGGTKVEIKR | 100% | 100% | 100% | ≤ 0.029 nM | 340000 M⁻¹ s⁻¹ | no binding | 0.0663 OD650

Results, then the binder that gave them:

Row | % of binding to human Ang-2 [1] | % of binding to human Ang-2 [2] | % of binding to human Ang-2 [3] | Kd [4] | kon [4] | binding result [5] | OD650 in inhibition assay [6] | Binder
6 | 100% | 100% | 100% | ≤ 0.031 nM | 320000 M⁻¹ s⁻¹ | no binding | 0.0688 OD650 | mAb 5.108.1 (antibody, V domains shown, Human hybridoma IgG (XenoMouse); also called x5.108) VH: QVQLVESGGGVVQPGRSLRLSCAASGFTFSSYGMHWVRQAPGKGLEWVAVIWYDGSNKYYADSVKGRFTISRDNSKNTLYLQMNSLRAEDTAMYYCARELALWGQGTLVTVSS VL: EIVMTQSPATLSVSPGERATLSCRASQSVSSYLAWYQQKPGQAPRLLIYGAFTRATGIPARFRGSGSGPEFTLTISSLQSEDFAVYYCQQYSHWWTFGQGTKVEIKR
7 | 100% | 100% | 100% | ≤ 0.065 nM | 150000 M⁻¹ s⁻¹ | no binding | 0.065 OD650 | mAb 5.62.1 (antibody, V domains shown, Human hybridoma IgG (XenoMouse); also called x5.62) VH: EVQLVESGGGLVQPGGSLRLSCAASGFTFSSYWMSWVRQAPGKGLEWVANIKQDGSEKYYVDSVKGRFTISRDNAKNSLYLQMNSLRAEDTAVYYCARDPGIAVAGPFDYWGQGTLVTVSS VL: EIVMTQSPATLSVSPGERATLSCRASQSVSSNLAWYQQKPGQAPRLLIYGAFTRATGIPARFSGSGSGTEFTLTISSLQSEDFAVYYCQQYNHWWTFGQGTKVGIKR
8 | 100% | 100% | 100% | ≤ 0.045 nM | 220000 M⁻¹ s⁻¹ | no binding | 0.101 OD650 | mAb 5.103.1 (antibody, V domains shown, Human hybridoma IgG (XenoMouse); also called 5.103.3; x5.103) VH: QVQLVQSGAEVKKPGASVKVSCKASGYTFTGYYLYWVPQAPGQGLEWMGWISPNSGGTNYAQKFQGRVTMTRDTSISTAYMELSRLRSDDTAVYYCARDQVIAVAGPFDYWAQGTLVTVSS VL: not shown
